Paper PMC12422735

Tested on: Δ40p53β (TS, purified)
Assay: SPR
Settings: Hill slope fit; SPR: 25 mM HEPES pH 7.5, 200 mM NaCl, 0.5 mM TCEP, 0.005% Tween-20, 20 °C; pull-down: 50 mM HEPES pH 7.5, 200 mM NaCl, 0.1% Tween-20, 0.5 mM TCEP, 4 °C

p21 RE 20 bp
binding signal (fold lower affinity than DBD-OD): 280
